Assay results as given in IntAct's records for PubMed 20388642.

B1: Ras-related protein Rab-8A (Homo sapiens), P61006 (parent)
chain: MAKTYDYLFKLLLIGDSGVGKTCVLFRFSEDAFNSTFISTIGIDFKIRTIELDGKRIKLQIWDTAGQERFRTITTAYYRGAMGIMLVYDITNEKSFDNIRNWIRNIEEHASADVEKMILGNKCDVNDKRQVSKERGEKLALDYGIKFMETSAKANINVENAFFTLARDIKAKMDKKLEGNSPQGSNQGVKITPDQQKRSSFFRCVLL

Variants of: B1
Details: with optn_human OPTN

Variant | effect of a mutation on the interaction
T22N | decreasing interaction
